The DeepSol protein solubility set

assay: soluble on expression in E. coli; label from the status in PepcDB or PDB records

Sequence	soluble on expression in E. coli
MQFEERLQQLVESDWSLDQSSPNVLVIVLGDTARKYVELGGLKEHVTTNTVAGHVASRERVSVVFLGRVKYLYMYLTRMQAQANGPQYSNVLVYGLWDLTATQDGPQQLRYLALCYGSASVCHLKLNSIQNRLLVACLPGYCDSGTILSDSCIVLHAIS	not soluble
MQFHAVYQNNDTKANLDFALNISTINFATLQELQNSFDLQGSDLTAGLFYKYSVNKLTSGTNDLTTIAKTALGENIIQKQVSLTQSIIKPRLEAAKTQYKQDIIAPFAKERQAALAQHL	not soluble
MQFSTVASIAAVAAVASAAANVTTATVSQESTTLVTITSCEDHVCSETVSPALVSTATVTVDDVITQYTTWCPLTTEAPKNGTSTAAPVTSTEAPKNTTSAAPTHSVTSYTGAAAKALPAAGALLAGAAALLL	soluble
MQHAKIFFVIASVKFLMILSIHNYTQMSKTCKLRTVARKTVMEFEGVEDFIVPFVNYTKRFMVAPDKKLISCTLRKSMSQLAENIMCLLYDEQQYFANSQSLNDTWKDERKCEHDRSYLNPSETLLNDTDTVRFAFIRDPFQRFISFYLDKCVREQKCYNCGNNMTCVLKNFYWGLKKVQRRWDGREQPEYVEIHAAPLSWNCDFYKDLSKWQLIPIGSDKTERSSAITQTEKILRKQRVNETLVDMVVDGMKDGDTDHSTYKSAHRLEAERQIREDPYIREMLHKIYYFDYVVFPFNRDSLDLKFQDTSCTIPLP	not soluble
MQHECNTDYTIAKYIPYIKPKYVTQEGTTVLYVRYNYNRNKRTLISTGYNIKPEHWDAKRKWIKRACPHYEEIDACLIKITSKLGDILTYAKVNGIDPTVDFVLLELEKNREYDLRPNRVDMFDALERYIVEKAPSVSADQIKDYRTLRKHLTAFKEYSSQPVTFRNLNLTFYNEFMDYLFHKVVKPNGTVGLLTNSAGKIIRLLKGFVNYQIVKGIIPPIDLKNFKVVEEETDAIYLNEKELAAIYELDLSDDKQLEEIRDVFITGCFTGLRYSDLSTLSPEHIDLDNENINLKQRKVHKAVVIPMIDYVPEILKKYNYDLPKIPRYMFNERVKELGRKIKLSQKIEVVRRKGKEREKRVYEKWEMISSHTCRRSFCTNMYLSGFPAAELMRISGHKSPSAFMRYIKVDNQQAAKRLKELRAKLAR	not soluble
MQKEKLSALMDGETLDSELLKALTHDPEMQKTWESYHLIRDSMRGDTPDVLHFDISARVMAAIENEPVRQVSPLIPEAQPAPQQWQKMPFWKKVRPWAAQLTQMGVAACVSLAVIVGVQHYNGQSETSQQPETPVFNTLPMMGKASPVSLGVPSEAAPVGSQQQQVQEQRRRINAMLQDYELQRRLHSEQLQFEQAQTQQAAVQVPGIQTLGTQSQ	not soluble
MQKFDTRTFQGLILTLQDYWARQGCTIVQPLDMEVGAGTSHPMTCLRELGPEPMAAAYVQPSRRPTDGRYGENPNRLQHYYQFQVVIKPSPDNIQELYLGSLKELGMDPTIHDIRFVEDNWENPTLGAWGLGWEVWLNGMEVTQFTYFQQVGGLECKPVTGEITYGLERLAMYIQGVDSVYDLVWSDGPLGKTTYGDVFHQNEVEQSTYNFEYADVDFLFTCFEQYEKEAQQLLALENPLPLPAYERILKAAHSFNLLDARKAISVTERQRYILRIRTLTKAVAEAYYASREALGFPMCNKDKLEHHHHHH	not soluble
MQKISRIVNSIYLTAELTAGTANTYDLIAEFFNFGPDSYNKLQSIDMKELKSGLEEIVSIHSELTYTDIDKRAEQRFRHLIEIRKEVEGVGSLEDIKDAQANYKSELETFKKTTFDTAGIEEFQNAVKNFIGAAADVEKYSNLEKLTDVDIMYARPLIYTLKTSIENLAKSYSSINSFDDFEKIRNPSEFVDPISKIVSGYKKYNASRTTIERDGNFAKGMQSNANNMKRLENVASVFEGLGSFVKNLQAVIDVRQTMHLPKYTVGFIDGTFDPKKVVTDLEDDWVQSVTHEMDLNRTINLLLPIGDHVSAIEASFLSSSSKQSKFFTGFKSSETEVSPVDGSIDSIISTSKKVSECIIAPLTYLESIKEVEILLQAIESLKKTVDTLVGTKELVNWVKTNDVVLKEVEALCSYTDEEKKDFESSVPIKLKGLKSSENYTSLIKTLNQSSLFADAVFSEKLSTTGQETAYILGGLQSLDAFYNSATDHIAFFDCLLNVAYYDLIPLAIDTLNKVRKMDVQPIRDGIDVVNDLFNVSNQLDELKTKLRELNDPNFSIAETPLSNPSLHTTTIGLSVRGVIRMKDEIDHRSDFDVVIENAEMVDQEMKNTGKKAINMVEFGSRLKKLKSELEGWKSNITVGGAHRIRRSTPSLADYAHIFQNALKVGGVDDDLKKLMDAVKDFEKTGKDAATKVKLKEVIASLNSLNSIGLQLSSFATPFTAIGQSFSALDAFFVSNGKIITTPAPIVSSSDIRSPTIEDATALVSFLYKLLNDFMKEEGDKGATNNGKLPLKAMYQFCKSILRIANLAPNNAIVESEKYSEQDRYSDVLCGMDNRILIDEDVCRRCYFKDQYINANYLELPNGNRMILTQAPMSRTEHFKPEKDKKRKNLYSLSDEEEEISYLVQTVDKFYQTIVQTGTEVVAMLCDFNEEGVEKCSSYFPLEKDGKQKFHNVNVCTTNVQHPSADVVLRTLVITSYLGEKKKTHTVKHYSYKGWIEKNAPELPREILNIFRVARNSKSLVVHCSNGIGRSAAFVSWELCYHFVPVNFEICDFSVAEFVYQKMIRSLDTTSTVNLDFLSLLTELRHSRPRAIHTPMQLAFSIMMVLDFVMNNFPKGEMEAKYQEIRKSYLHARQMMHKDLEFDGSDGKTVDIALDEDGHGIPEKKGKKKTNKKAAQQASVKKDEKSKKKSKKDSKKGSKMDMKTAEEGMKSLQKKAA	not soluble
MQKLIMGNWKMNGNSTSIKELCSGISQVQYDTSRVAIAVFPSSVYVKEVISQLPEKVGVGLQNITFYDDGAYTGEISARMLEDIGCDYLLIGHSERRSLFAESDEDVFKKLNKIIDTTITPVVCIGESLDDRQSGKLKQVLATQLSLILENLSVEQLAKVVIAYEPVWAIGTGVVASLEQIQETHQFIRSLLAKVDERLAKNIKIVYGGSLKAENAKDILSLPDVDGGLIGGASLKAAEFNEIINQANKICTE	not soluble
MQLNATQLQAALPWDSLIEALKDIFVREVCSPVRHHHSINVPDKLSATLLLMPAWLEGEYLGIKQVNVFPSNNVSNIPALSSHYMLSCGKTGQPLMQLDGNELTARRTAAASALASAYLSREDARVMLMVGSGRMARRLITAHMSVRPIKIVQVWDRKEEKAQTLVTELKESGINAEVCKPDNLQAAAQQADIISCATMATSPLILGKWLKPGAHLDLVGSFTPTMRETDNAAMQLCSVFVDTRAGALSETGDLIIPIRDGAITQEKIIAEFTQLCSGEHRGRADLANPDNSITLFKSVGDSREDLAAAILAFEQCNQR	not soluble
MQLRKKLHEAIVDGEEDDCPKRKIKKLDIQVDAATKVFSNQHILHDIIEYTVDGDKSILDNLRLRLVSRSFNNVVLSKVRAEFKMVQVCPYQQPEGADEKEEPEYDESNDIEDRSFMINDRRTWFSQVPRFFEFLNSVARIRVRDLLFSGFTSPDQRIHECILYSLLDGNWYSLNSYKGADELCNGCAVCSGNCFPLLAEIALHCVTMVGSREEAFSRLTKMITQDVNCDQLDLVFSDRCMWSKGTLAHPREVIDRIVKAWRVKSINIRFMTEYSSIDHEMWSNKRIFTEMRFDEMFVTDHNIIRPRHERDHFERVEVDMQAGDEIATCFAESMGMFEQSGMSATAFQNVCANVKRIFPTQDMYLILPTELAHVASVEFDGFCKALLEFAWKDERTARHSRLFFRLYTFGITEEQVLRQTENQFKINCRPVAAMLSDSSVRRSFLQWLPGSTSTFDRSLLSFTDVWNNCVLHLEVCIEADC	not soluble
MQMLDRLESEILADRVSEESRRWLASCGLTVEQMKNQMDPVYTPARKIHLYHCDHRGLPLALISTEGATAWCAEYDEWGNLLSDENPHHLQQLIRLPGQQYDEESGLYYNRHRYYDPLLGRYITQDPIGLKGGWNFYQYPLNPVINVDPQGLVDINLYPESDLIHSVADEINIPGVFTIGGHGTPTSIESATRSIMTAKDLAYLIKFDGNYKDGMTVWLFSCNTGKGQNSFASLEHHHHHH	not soluble
MQNDVFFDLTQHGFSEDEASQLMVYGQELELPTRHILSHQGEFSSHIYFILEGLCHASYLTEKGKEFSKEFYWEKDWVIGFESVIKGQPSPYLLETLTACHLFCLPIEALHQWRAEKHSIYLKLLETQLMNKENKERFMLLYSPEERYQLFCHHYPDLEQRITDSQIAAYLGITAISLSRIKARLAKDNK	not soluble
MQNELQTALFQAFDTLNLQRVKTFSVPPVTLCGPGSVSSCGQQAQTRGLKHLFVMADSFLHQAGMTAGLTRSLTVKGIAMTLWPCPVGEPCITDVCAAVAQLRESGCDGVIAFGGGSVLDAAKAVTLLVTNPDSTLAEMSETSVLQPRLPLIAIPTTAGTGSETTNVTVIIDAVSGRKQVLAHASLMPDVAILDAALTEGVPSHVTAMTGIDALTHAIEAYSALNATPFTDSLAIGAIAMIGKSLPKAVGYGHDLAARESMLLASCMAGMAFSSAGLGLCHAMAHQPGAALHIPHGLANAMLLPTVMEFNRMVCRERFSQIGRALRTKKSDDRDAINAVSELIAEVGIGKRLGDVGATSAHYGAWAQAALEDICLRSNPRTASLEQIVGLYAAAQ	soluble
MQNETINLKQHLAAIKEYWQPEIINRHGFQFHLVKLLGDYGWHTHGYSDKVLFAVEGDMAVDFADGGSMTIREGEMAVVPKSVSHRPRSENGCSLVLIELSDPSEAV	soluble
MQNLSSTQREILLALVDLYNRYKRMIKSKEVADVIGKDEGTVRNIILSLKVLGLIESKPGPNGGYVPTLKAYESIKNPIITPVFDQISLYKDGLETDIKISNIELLDITNPSGNKVLLRVNGDLRKLKVGDSIKIGPIPYTRLVIEGVVIHIDDTRKELIADVTRMISIPKVQIKSLISKKLVALKPDMTLKEASQIFYKEGIRGAPVLDNEGKTLGILTTADIIKAFFEGKYDAKVSEYMKSNVISIRDEDDILTAIKKMLIYNVGRLLVYNQDQKVIGIVTRTDILKTIAGLEELITP	soluble
MQNVLIVGVGFMGGSFAKSLRRSGFKGKIYGYDINPESISKAVDLGIIDEGTTSIAKVEDFSPDFVMLSSPVRTFREIAKKLSYILSEDATVTDQGSVKGKLVYDLENILGKRFVGGHPIAGTEKSGVEYSLDNLYEGKKVILTPTKKTDKKRLKLVKRVWEDVGGVVEYMSPELHDYVFGVVSHLPHAVAFALVDTLIHMSTPEVDLFKYPGGGFKDFTRIAKSDPIMWRDIFLENKENVMKAIEGFEKSLNHLKELIVREAEEELVEYLKEVKIKRMEI	soluble
MQPSHPSQPSHADRAAPTSALAPVVPPVLAEVVRSGFVEGRHRGSLVVLGADGAVELALGEVTAPVFPRSSNKPMQAAGVLRAGLDLAGERLALAAASHSGEPFHRDLVRKMLDEYGLDPALLQCPPDLPLDAEERETYLASGAEPDRVTMNCSGKHTAMLAVCAQQGWPLETYLDPEHPLQRVIHRVVEDAAGEPVAAVGTDGCGAPLMAISLVGLARAFRSFVAAEPGSAERRVADAMRAHPEYVAGSRRADTWLMREVPGSLSKMGAEAVQAVALPDGRALAFKIEDGATRALGPVLARALTLLGVDAPVVGRIGRAPLLGGGREVGEIRASFLEHHHHHH	not soluble
MQQTTQIQPSFTLKTREGGVASADERADEVVIGVGPAFDKHQHHTLIDMPHGAILKELIAGVEEEGLHARVVRILRTSDVSFMAWDAANLSGSGIGIGIQSKGTTVIHQRDLLPLSNLELFSQAPLLTLETYRQIGKNAARYARKESPSPVPVVNDQMVRPKFMAKAALFHIKETKHVVQDAEPVTLHIDLVRE	soluble
MQRKTFADAECPIARSLERVGEWWSILIMRDALQGLRRFDEFSRSLDIAPNMLTRRLNALVEAGLLERQPYSQRPLRYQYVPTAKGEDFRVVLMAFVAWGNRHYAEEGQSVQLVERTSGRPVRSFMAALADGRTVPLEQCTVQAGPAASEEMRQRLAAMPERSELPAR	not soluble
